Data reported in patent publication US8765433B2, “Alcohol dehydrogenases (ADH) useful for fermentive production of lower alkyl alcohols” (Butamax Advanced Biofuels LLC, priority 2009, dated 2014).

B1: RpADH8: Rana perezi ADH8, SEQ ID NO: 28 (protein, listed as Rama perezi)
chain: MCTAGKDITCKAAVAWEPHKPLSLETITVAPPKAHEVRIKILASGICGSDSSVLKEIIPSKFPVILGHEAVGVVESIGAGVTCVKPGDKVIPLFVPQCGSCRACKSSNSNFCEKNDMGAKTGLMADMTSRFTCRGKPIYNLVGTSTFTEYTVVADIAVAKIDPKAPLESCLIGCGFATGYGAAVNTAKVTPGSTCAVFGLGGVGFSAIVGCKAAGASRIIGVGTHKDKFPKAIELGATECLNPKDYDKPIYEVICEKTNGGVDYAVECAGRIETMMNALQSTYCGSGVTVVLGLASPNERLPLDPLLLLTGRSLKGSVFGGFKGEEVSRLVDDYMKKKINVNFLVSTKLTLDQINKAFELLSSGQGVRSIMIY
B2: EhADH1: Entamoeba histolytica ADH1, SEQ ID NO: 30 (protein, listed as Entamoeba histolytica)
chain: MKGLAMLGIGRIGWIEKKIPECGPLDALVRPLALAPCTSDTHTVWAGAIGDRHDMILGHEAVGQIVKVGSLVKRLKVGDKVIVPAITPDWGEEESQRGYPMHSGGMLGGWKFSNFKDGVFSEVFHVNEADANLALLPRDIKPEDAVMLSDMVTTGFHGAELANIKLGDTVCVIGIGPVGLMSVAGANHLGAGRIFAVGSRKHCCDIALEYGATDIINYKNGDIVEQILKATDGKGVDKVVIAGGDVHTFAQAVKMIKPGSDIGNVNYLGEGDNIDIPRSEWGVGMGHKHIHGGLTPGGRVRMEKLASLISTGKLDTSKLITHRFEGLEKVEDALMLMKNKPADLIKPVVRIHYDDEDTLH
B3: VpADH: Vanderwaltozyma polyspora DSM 70294 ADH, SEQ ID NO: 38 (protein)
chain: MSYPEKFQGIGITNREDWKHPKKVTFEPKQFNDKDVDIKIEACGVCGSDVHCAASHWGPVAEKQVVGHEIIGRVLKVGPKCTTGIKVGDRVGVGAQAWSCLECSRCKSDNESYCPKSVWTYSIPYIDGYVSQGGYASHIRLHEHFAIPIPDKLSNELAAPLLCGGITVYSPLLRNGCGPGKKVGIVGIGGIGHMGLLFAKGMGAEVYAFSRTHSKEADAKKLGADHFIATLEDKDWTTKYFDTLDLLVICASSLTDINFDELTKIMKVNTKIISISAPAADEVLTLKPFGLIGVTIGNSAIGSRREIEHLLNFVAEKDIKPWVETLPVGEAGVNEAFERMDKGDVKYRFTLVDFDKEFGN
modifications: Vanderwaltozyma polyspora DSM 70294
B4: ScADH6: Saccharomyces cerevisiae ADH6 alcohol dehydrogenase, SEQ ID NO: 22 (protein, listed as Saccharomyces cerevisiae)
chain: MSYPEKFEGIAIQSHEDWKNPKKTKYDPKPFYDHDIDIKIEACGVCGSDIHCAAGHWGNMKMPLVVGHEIVGKVVKLGPKSNSGLKVGQRVGVGAQVFSCLECDRCKNDNEPYCTKFVTTYSQPYEDGYVSQGGYANYVRVHEHFVVPIPENIPSHLAAPLLCGGLTVYSPLVRNGCGPGKKVGIVGLGGIGSMGTLISKAMGAETYVISRSSRKREDAMKMGADHYIATLEEGDWGEKYFDTFDLIVVCASSLTDIDFNIMPKAMKVGGRIVSISIPEQHEMLSLKPYGLKAVSISYSALGSIKELNQLLKLVSEKDIKIWVETLPVGEAGVHEAFERMEKGDVRYRFTLVGYDKEFSD
B5: McADH: Mucor circinelloides ADH, SEQ ID NO: 39 (protein)
chain: MSEETFTAWACKSKSAPLEPMEMTFCHWDDDMVQMDVICCGVCGTDLHTVDEGWGPTEFPCVVGHEIIGNVTKVGKNVTRIKVGDRCGVGCQSASCGKCDFCKKGMENLCSTHAVWTFNDRYDNATKDKTYGGFAKKWRGNQDFVVHVPMDFSPEVAASFLCGGVTTYAPLKRYGVGKGSKVAVLGLGGLGHFGVQWAKAMGAEVVAFDVIPDKVDDAKKLGCDDYVLMQKEEQMEPHYNTFTHILATKIVNKCWDQYFKMLKNNGIFMLCDIPEVPLSGMSAFVMAGKQLTIAGTFIGSPSVIQECLDFAAKHNVRTWVNTFPMEKINEAFEFVRQAKPRYRAVVMN
modifications: Mucor circinelloides
B6: BiADH: ADH of Beijerinckia indica subsp. Indica ATCC 9039, SEQ ID NO: 31 (protein, listed as Beijerickia indica)
chain: MKALVYRGPGQKLVEERQKPELKEPGDAIVKVTKTTICGTDLHILKGDVATCKPGRVLGHEGVGVIESVGSGVTAFQPGDRVLISCISSCGKCSFCRRGMFSHCTTGGWILGNEIDGTQAEYVRVPHADTSLYRIPAGADEEALVMLSDILPTGFECGVLNGKVAPGSSVAIVGAGPVGLAALLTAQFYSPAEIIMIDLDDNRLGLAKQFGATRTVNSTGGNAAAEVKALTEGLGVDTAIEAVGIPATFELCQNIVAPGGTIANVGVHGSKVDLHLESLWSHNVTITTRLVDTATTPMLLKTVQSHKLDPSRLITHRFSLDQILDAYETFGQAASTQALKVIISMEA
B7: BtARD: Bos Taurus Aldehyde Reductase, SEQ ID NO: 27 (protein, listed as Bos taurus)
chain: MAASCILLHTGQKMPLIGLGTWKSDPGQVKAAIKYALSVGYRHIDCAAIYGNETEIGEALKENVGPGKLVPREELFVTSKLWNTKHHPEDVEPALRKTLADLQLEYLDLYLMHWPYAFERGDSPFPKNADGTIRYDSTHYKETWRALEALVAKGLVRALGLSNFNSRQIDDVLSVASVRPAVLQVECHPYLAQNELIAHCQARNLEVTAYSPLGSSDRAWRDPEEPVLLKEPVVLALAEKHGRSPAQILLRWQVQRKVSCIPKSVTPSRILENIQVFDFTFSPEEMKQLDALNKNLRFIVPMLTVDGKRVPRDAGHPLYPFNDPY

What was measured:
Format in all cases: biochemical
[1] = ADH activity assays of cell extracts and purified proteins; conditions: cell extracts or purified protein, initial experiments
Protocol: (§1) As a routine practice, the crude extracts and purified proteins were assayed for butanol oxidation activity, in order to ensure that the recombinant proteins were active throughout the purification process. […] Alcohol oxidation activities were carried out in 50 mM sodium phosphate buffer at pH 8.8 and aldehyde reduction reactions were assayed in 190 mM potassium phosphate buffer at pH 7.0. Depending on the nature of reaction being carried out, the enzyme and cofactor stocks were diluted in the reaction buffers at the respective pHs. Either buffer or cell extract prepared from the proprietary E. coli strain (with no ADH plasmid) was used as the negative control for assays with purified protein and cell-free extracts, respectively.
(§2) In initial experiments, there were insufficient levels of protein expression with EhADH1 and RpADH8. […] It is believed that one of skill in the art could further optimize expression and assay conditions for these candidates. Sufficient amounts of active protein could be purified with all other enzymes for which data are presented. […]

[2] = Cofactor specificity in isobutyraldehyde reduction reactions; conditions: for COFACTOR PREFERENCE: isobutyraldehyde reduction, NADH or NADPH as cofactor
Protocol: as §1, §2

[3] = Semi-physiological time-course assay with and without 321 mM isobutanol
Text: The ideal way to characterize and compare various ADH candidates would be to calculate and compare the full set of kinetic constants, i.e., kcat values for aldehyde reduction and alcohol oxidation, KM values for isobutyraldehyde, isobutanol, NAD(P) and NAD(P)H, and KI values for isobutyraldehyde and isobutanol. A detailed characterization for numerous candidates would require considerable expenditure of time, effort and money. Thus, a qualitative assay was developed to allow for quick and efficient comparison of several candidates. A semi-physiological assay was designed to compare the performance of various enzymes. The assays entail the initiation of all reactions with a constant amount of each enzyme. […] Each reaction's time course was followed for 10 min by measuring the decrease in absorbance at 340 nm, as the reaction proceeds towards equilibrium. An enzyme with a high kcat, would drive the reaction towards equilibrium faster than an enzyme with a lower kcat. A parallel assay was also carried out under identical conditions, but with the inclusion of 321 mM isobutanol (24 g/L) in the reaction. An enzyme that is relatively uninhibited by this concentration of isobutanol would have a time course that closely mimics the time course in the absence of isobutanol.

[4] = Isobutanol oxidation assay; conditions: Table 8
Protocol: as §1
Kinetic constants of the ADH enzymes were calculated and compared to identify those candidate ADH enzymes with the most desirable properties for the conversion of isobutyraldehyde to isobutanol in the last step of the engineered pathway for isobutanol production. The assays for determining the kinetic constants were carried out using initial rates from the assays described above. […] The concentration of a given enzyme was such that it was conducive for the measurement of initial velocities over a 1-min time course. For each enzyme, Michaelis-Menten plots were generated with a broad range of substrate concentrations. Rough estimates of KM were obtained, based on which the assays were redesigned so as to use substrate concentrations in the range 0.5 to 10 times the KM value, to be able to obtain the appropriate kinetic constants. […] When calculating the KI for isobutanol, the same reactions were carried out in the presence of varying concentrations of isobutanol (generally 0-535 mM) in the reaction (see FIG. 7, for example). Reactions with isobutanol substrate were performed at 30° C. in 50 mM Sodium phosphate buffer, pH 8.8, containing 7.5 mM NAD. The Enzyme kinetics module (Version 1.3) of SigmaPlot 11 (Systat Software, Inc.) was used to fit data to Michaelis-Menten equations and calculate the kinetic constants. The kcat/KM is derived from the individual numbers of kcat and KM and not an experimentally determined value. The ratios of the KM, KI, and kcat/KM for each candidate enzyme as compared to the same parameter for SadB are given in Table 9.

Row | Molecule | ADH activity [1] | COFACTOR PREFERENCE [2] | further results
1 | B1 | failed to detect ADH activity | – | –
2 | B2 | failed to detect ADH activity | – | –
3 | B3 | no detectable activity | – | –
4 | B4 | – | NADPH | Other enzymatic properties and cofactor preference ([2]; Table 7): NADPH specific; inhibition by isobutanol (inferred from time courses, FIG. 1) ([3]; 321 mM isobutanol (24 g/L)): likely to be the least inhibited
5 | B5 | – | NADH | conversion of isobutanol to isobutyraldehyde [4]: No measureable; Other enzymatic properties and cofactor preference ([2]; Table 8): NADH specific
6 | B6 | – | NADH | kcat for the isobutyraldehyde reduction reaction (inferred from time courses, FIG. 1) ([3]; 1 ug enzyme, 1 mM isobutyraldehyde, 200 μM NADH, 10 min): likely to have the highest kcat
7 | B7 | no detectable activity | – | –
